Experimental data reported in the nanobody polyreactivity screen of Harvey et al. (2022).

Experiment: yeast display, Sf9 membrane polyspecificity reagent, FACS + sequencing; frameworks hold sequencing errors
In short: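 Nanobodies came from a synthetic yeast display library in Saccharomyces cerevisiae BJ5465, induced with galactose for 36–48 hours and stained for 1 hour at 4 °C with 10% biotinylated, detergent-solubilized Sf9 membrane reagent. Cells were enriched on streptavidin microbeads and then FACS-sorted, with low and high (top ~1%) gates set on anti-HA fluorescence for expression and streptavidin fluorescence for reagent binding. Each polyreactivity label reflects the gate a clone came from. Genes were amplified by colony PCR, sequenced by MiSeq 2 × 250 and filtered by CDR length.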
For “QVQLVESGGGLVQAGGSLRLSCAASGSAYHYAMGWYSQAPGKERELVASITWRGDTTYYADSVKGRFTISRDNAKITVYLQMNSLKPEDTAVYYCAARKFFRQGGKRYDYWGQGTQVTVSS”, the “polyreactivity (PSR sort gate)” value was “high polyreactivity”.
In the case of “QGQLVESGGGLVQAGGSLRLSCAATGLIFDTNAMGWYRQAPGKERELVAAINSTGSTNYADSVKGRFTISRDNAKNTVYLQMNSLKREDTAVYYCAVEYDSSAQPRTEFDYWGQGTQVTVSS”, the “polyreactivity (PSR sort gate)” value is reported as “low polyreactivity”.
In the case of “QVQLVESGGGLVQAGGSLRLSCAASGSTFGGYAMGWYRPAPGKERELVAAISGGGRTYYADSVKGRFTISRDNAKNTVYLQMNSLKPADTAVYYCNAGYWFGYRLFTGYYWGQGTQVTVSS”, the “polyreactivity (PSR sort gate)” value is reported as “low polyreactivity”.
For “QVQLVESGGGLVQAGGSLRLSCAASGSIFPANVMGWYRQAPGKERELVAVISSSGGRTFYADSVKGRFTISRDNAKNTVYLQMNSLKPEDTAVYYCAATIYDYNRGRKYYYWGQGNQVTVSS”, the “polyreactivity (PSR sort gate)” value was “high polyreactivity”.
With “QVQLVESGGGLVHAGGSLRLSCAASGLTFYRYAMGWYRQAPGKERELVAAIRSNVVTTYYADSVKGRFTISRDNAKNTVYLQMNSLKPEDTAVYYCAARFGRSAQPGYDYWGQGTQVTVSS” the “polyreactivity (PSR sort gate)” value was “high polyreactivity”.
In the case of “QVQLVESGGGLVQAGGSLRLSCAASGFIFRYYAMGWYRQAPGKERELVAAISKRGGGTYYADSVKGRFTISRDYAKNTVFLQMNSLKPEDTAVYYCAAGPGRGRSTLGSYYWGQGTQVTVTS”, the “polyreactivity (PSR sort gate)” value is reported as “high polyreactivity”.
For “QVQLVESGGGLVQAGGSLLLTCAASGITFGLYAMGWYREAPGKERELVAAIFSGGITYYADSVKGRFTISRDNAKNTVYLQMNSRKPVDTAVYYCAAYKYSYKYYYWGQGTQVTVSS”, the “polyreactivity (PSR sort gate)” value was “low polyreactivity”.
For “QVQLVESGGGLVEAGGSLRLSCAASGRIFCYNAMGWYRQAPGKERELVAAIRSGGRTHYADSVKGRFTISRDNAKNTVTLQMNSLKPEDTAVYYCAARSVPYPYRRNPYDYWGQGTQVTVSS”, the “polyreactivity (PSR sort gate)” value was “high polyreactivity”.
In the case of “QVQLVESGGGLVQAGGSLSLSCAASGLTFSWYTMGWYRPAPGKERELVAAISWSGVSTYYADSVMGRFTISRDNAKNTVYLQMNSLKPEDTAVYYCAAAKTGRGRGTTGYGYWGQGTQVTVSS”, the “polyreactivity (PSR sort gate)” value is reported as “high polyreactivity”.
For “QVQLVESGGGLVQAGGSLRLSCAASGFTFGVYAMGWYRQAPGKERELVAAISTTVGSTYYADSVKGRFTISRDNAKNTVYLQMNSLKPEDSAVYYCAAEYTGYINYYIYEYWGQGTQVTVSS”, the “polyreactivity (PSR sort gate)” value was “low polyreactivity”.
In the case of “QVQLVESGGGLVQAGGSLRLSCPASGSTFMKYDKGWYRQAPGIVRELVAAISWDGGSTYYADSVKGRFTISRDNAKNTVYLQMNSLKPEDTAVYYCNADYDVYLTIWYYYCEFDYWGQGSQVTVSS”, the “polyreactivity (PSR sort gate)” value is reported as “low polyreactivity”.
With “QVQLVESGGGLVQAGGSLRLSCAASGRILYRYVMGRYRQAPGKERELVAGISWSGGSTYYADSVKGRFTISSDTAKNTVYLQMNSLKPEVTAVYYCASTFRTYAPRPYQGDYWGQGTQVTVSS” the “polyreactivity (PSR sort gate)” value was “low polyreactivity”.
With “QVQLVESGGGLVQAGGSLRLSCAASGFIFRAYAMGWYRQEPGKERELVAAISRGGGTYYADSVKGRFTISRDNAKNTVYLQMNSLKPEDTAVYYCAVDLLRRGFPTVVTTYDYWGQGTQVTVSS” the “polyreactivity (PSR sort gate)” value was “high polyreactivity”.
With “QVQLVESAGGLVQAGGTLRLSCAATGRIVYLNAMGWYRQAPGKERELVAAISGSTGSTYYADSVKGRFTISRDNAKNTVYLQMMSLKPEDTAVYYCNAGGVYDEFNYWGQGTQVTVSS” the “polyreactivity (PSR sort gate)” value was “low polyreactivity”.
For “QVQLVESGGGLVQAGDSLRLSCAASGSTFTRNAMGWYRQAPGKERDLVASITRGGSTYADSVKGRFTISRDNAKNTVYLQMYSLKPEDTAVYYCAKSVTCWRGLWYTPRNYFWGQGSQVTVSS”, the “polyreactivity (PSR sort gate)” value was “high polyreactivity”.
For “QVQLVDSGGGLVQAGGSLRLSCAASGSTFGGNAMGWYRQAPGKERELVAAITGSGGRTFYADSVKGRFTISRDNAKNTVYLQMNSLNPEDTAVYYCAADSYIYSVNYWGQGTQLTVSS”, the “polyreactivity (PSR sort gate)” value was “low polyreactivity”.
In the case of “QVQLVESGGGLVQAGGSLRLSCAASGFTFSYYAMGWYRQAPGKERELVASISRSGNTYYADSVKGRFTISRDNAKNTVYLQMNSLKPEDTAVYYCNARRHYRRYSYRHNYWGQGTQVTVSS”, the “polyreactivity (PSR sort gate)” value is reported as “high polyreactivity”.
With “QVQLVESGGGLVQAGGSLRLSCAASGLTFPLYAMGWYRQAPGKEREFVAAITVSGVSTSYADSVKGRFTISRDNAKNTVYLQMNSLKPEDTAVYYCAADYYIWTYWDVYYWGQGTQVTVSS” the “polyreactivity (PSR sort gate)” value was “high polyreactivity”.
In the case of “QVQLVESGGGLVQAGGSLRLSCAASGSTFSKYAMGWYRQAPGKERELVAAISSRGGSTYYADSVKGRFTISRDNAKNTVYLQMNSLKPEDTAVYYCATYYVYKLYYWGQGTQVTVSS”, the “polyreactivity (PSR sort gate)” value is reported as “high polyreactivity”.
With “QVQLVESGGGLVQAGGSLRLSCAASGFTFLDYAMGWYRQAPGKERELVAAIDDSGGSTYYADSVKGRFTISRDNAKNTVYLQMNSLKPEDTAVYYCAADWYFFSQLYDYWGQGTQVTVSS” the “polyreactivity (PSR sort gate)” value was “low polyreactivity”.
For “QVQLVDSGGGLVQAGGSLRLICAASGFIFGKYAMGWYRQAPGKEWEFVAAITGNGGSTYYADSVKGRFTISRDNAKNTVYLQMNSLKPEDTAVYYCNADRGYRRRSGMDYWGQGTQLTVSS”, the “polyreactivity (PSR sort gate)” value was “low polyreactivity”.
With “QVQLVESGGGLVQAGGSLRLSCAASGNIFVFYVMGWYRQAPGNEREFVASFSSTGNTYYADSVKGRFTISRDNAKNTVYLQLNSLKPEDTAVYYCAADSHQNVSGWLRWPRMDYWGQGTQVTVSS” the “polyreactivity (PSR sort gate)” value was “low polyreactivity”.
With “QVQLVESGGGLVQAGGSLRLSCDASGLIFYDNMGWYRQAPGKERELVAAISSSGGSTSYADSVKGRFTISRDNAKNTVYLQMNSLKPEDTAVYYCAAELGYIGSYYWIYYYWGQGTQGTVSS” the “polyreactivity (PSR sort gate)” value was “low polyreactivity”.
With “QVQLVESGRGLVQAGGSLRLSCAASGGTFGWYAMGWYRQAPGKERELVAAISQGGGSTYYADSVKGRFTISRDNAKNTVYLQMNSLKPEDTAVYYCAAYLGRAKGYEYWGQGTQVTVSS” the “polyreactivity (PSR sort gate)” value was “high polyreactivity”.
In the case of “QVQLVESGGGLVQAGGGLRLSCSASGYIFGYTAMGWYRQAPGKERELVAAISYSGGSTYYADSVKGRFTISRDNAKNTVYLQMNSLKPVDTAVYYCAAYRKGTWPGYLGVGYDYWGQGTQVTVSS”, the “polyreactivity (PSR sort gate)” value is reported as “high polyreactivity”.
With “QVQLVESGAGLVQAGGSLRLSCAASGRIFPDNTMGWYRQAHGKERELVAVITYSGGSTYYADSVKGRFTISRDNAKNTVYLQMNSLKPEDTAVYYCAADFGFQLKMYYWGQGTQVTVSS” the “polyreactivity (PSR sort gate)” value was “low polyreactivity”.
In the case of “QVQLVESGVGLVQAGGSLRLSCAASGSPFRRNALGWYRQAPGKERELVAAITWRGTSTYYADSVKGRFTISRDNAKNTVYLQMNSLIPEDTAVYYFATSKSRLRYDYWGQGTQVTVSS”, the “polyreactivity (PSR sort gate)” value is reported as “high polyreactivity”.
With “QVQLEESGGGLVQAGGSLRLSCAASGFTFNLYTMGWYRQAPGKERELVAAISRSGDRTYYADSVKGRFTISRDNAKNTVYLQMNSLKPEDTAVYYCAARSYRPTRGDYWGQGTQVTVSS” the “polyreactivity (PSR sort gate)” value was “high polyreactivity”.
For “QVQLVESGGGLVQAGGSLRLSCAASGRTIYRYAMGWYRQAPGKERELVAAITRRGVNTYYADSVKGRFTISRDNAKNTVYLQMNSLKPEDTAVYYCAAENGALVTYGYWGQGTQVTVSS”, the “polyreactivity (PSR sort gate)” value was “high polyreactivity”.
For “QVQLVESGGGLVQAGGSLRLSCAASGSTFTLNAMGWYRQAPGKERELVADISWSSGRTYYADSVKGRFTISRDNAKNTVYLQMNSLKPEDTAVYYCNKDDNSYGLNYWGQGTQVTVSS”, the “polyreactivity (PSR sort gate)” value was “low polyreactivity”.
With “QVQLVESGGGLVQAGGSLRLSCAASGSTFEPYAMGWYRQAPGKERELVAAISWSGGSTYYADSVKGRFTISRDNAKNTVYLQMNSLQPEDTAVYYCAAESGVPYYLPVVIYYYWGQGTQVTVSS” the “polyreactivity (PSR sort gate)” value was “high polyreactivity”.
With “QVQLVESGGGLVQAGGSLRLSCAASGLTFAYYVMGWYRQAPGKERELVATITRGGDTNYADSVKGRFTISRDNAKNTVYLQINSLKPEDTAVYYCAAGSYRDRTFAYNYWGQGTQVTVSA” the “polyreactivity (PSR sort gate)” value was “high polyreactivity”.
With “QVQLVESGGGLVQAGGSLRLSCAASGRIFVIYAMGWYRQAPGKERELVAAISYSGGSTYYADSVKGRFTISRDNAKNTVYLQMNSLKPEDTAVYYCAARVRGDYGHKYYQYDYWGQGTQVTVSS” the “polyreactivity (PSR sort gate)” value was “low polyreactivity”.
In the case of “QVQLVESGGGLVQAGGSLRLSCAASGRTFTIYARGWYRHAPGKERELVAAISSGSRTYYADSVKGRFTISRDNAKNTVYLQMNSLKPEDTAVYYCAASLTRHGYYRLFDYWGQGTQVTVSS”, the “polyreactivity (PSR sort gate)” value is reported as “high polyreactivity”.
With “QVQLVESGGGLVQAGGSLRLICAASGRTFDGYVMGLYRQAPGKERELVASIRGTGSTYYADSVKGRFTISRENAKNTVYLQMNSLKPEDTAVYYCAARPGYAYDWGQGTQVTVSS” the “polyreactivity (PSR sort gate)” value was “high polyreactivity”.
In the case of “QVQLVESWGGLVQAGGSLRLSCASSGITFSPYALGWYRQAPGKERELVAAISSRGGSTYYADSVKGRFTISRDNAKNTVYFQMNSLKPEDTAVFYCNALTFVRYLFHYTYWGQGTQVTVSS”, the “polyreactivity (PSR sort gate)” value is reported as “high polyreactivity”.
In the case of “QVQLVESGGGLVQAGGSLRLSCAASGYTFPTNAMGWYRQAPGKERELVAAISIDDGITYYADSVKGRFTISRDNAKNTVYLQMNSLKPEDTAVYYCSAEVGIEYEYWGQGTQVTVSS”, the “polyreactivity (PSR sort gate)” value is reported as “high polyreactivity”.
In the case of “QVQLVESGGGLVQAGGSLRLSCAASGRIFHKYTMGRYRQAPGKERELVAAISFSTGNTFYADSVKGRFTISRDTANNTVFLQMNSLKPEDTAVYYCATDVLYPDYDYWGQGTQVTVSS”, the “polyreactivity (PSR sort gate)” value is reported as “low polyreactivity”.
With “QVQLVESGGGLVQAGGSLRLSCDASGRTFKQNAMGWYRQAPGKERELVATIRNGVNTNYEDSVKGRFTISRDNAKNTVYLQMNSLKPEDTAVYYCAARYWQAHAFQGNTGYSWQYGYWGQGTQVTVSS” the “polyreactivity (PSR sort gate)” value was “high polyreactivity”.
With “QVQLVESGGGLVQAGGSLRLSCAASGRIFYPYAMGWYRQAPGKERELVAVINGSGGSTYYADSVKGRFTISRDNAKNTVYLQMNSLKPEDTAVYYCAAYFGHYWRYYYWGQGSQVTVSS” the “polyreactivity (PSR sort gate)” value was “high polyreactivity”.
With “QVQLVESGGGLVQAGGSLRLSCAASGFTFLANGMGWYRQAPGKERELVAGITKDGGSTYADSVKGRFTISRDNAKNTVYLQMNSLKPEDTAVYYCAASIFSFSGGLNNGGTRGYWGQGTQVTVSS” the “polyreactivity (PSR sort gate)” value was “low polyreactivity”.
In the case of “QVQLEESGGGLVQAGGSLRLSCAASGRTFSRYAMGWYRQAPGKERELVAAIRGNSGNTYYADSVKGRFTISRDNAKNTVYLQMNSLKPEDTAVYYCAKPFNIWGQGTQVTVSS”, the “polyreactivity (PSR sort gate)” value is reported as “high polyreactivity”.
In the case of “QVQLVESGGGLVQAGGSLRLSCAASGRTFYLYTMGWYRQAPWKERELVAGISWSGGSTYADSVKGRFTLSRDNAKNTVYLQMNSLKPEDTAVYYFNADDVRGLFYYWGQGTQVTVSS”, the “polyreactivity (PSR sort gate)” value is reported as “low polyreactivity”.
